Reference: patent publication US20240392251A1, “CULTURE MEDIUM AND CULTURE METHOD FOR LUNG CANCER EPITHELIAL CELLS, AND APPLICATION THEREOF” (PRECEDO PHARMACEUTICALS CO., LTD, priority 2021, published 2024)

Legend:
[1] = tested on: lung cancer epithelial cells (Sample No. B26); experiment: Effects of different concentrations of the additive factors on proliferation of primary lung cancer cells; type: cell-based, human; settings: added to No. 8 medium lacking the factor; cell number ratio to Blank Control; FIGS. 3A-3H
Experimental: Extracellular matrix gel (Matrigel®) was diluted with serum-free DMEM/F12 medium at a ratio of 1:100 to prepare an extracellular matrix diluent. The extracellular matrix diluent was added to a 48-well culture plate with 200 μl/well to completely cover the bottom of the wells of the culture plate. The culture plate was let stand for 1 hour in a 37° C. incubator. After 1 hour, the extracellular matrix diluent was removed to provide a Matrigel-coated plate.
No. 8 culture medium for primary lung cancer epithelial cells was prepared.
Lung cancer epithelial cells derived from cancer tissues were isolated from the cancer tissue of a lung cancer patient (Sample No. B26) using the same method as in Example 1. Next, lung cancer epithelial cells derived from cancer tissues were counted with a flow imaging counter (JIMBIO FIL, Jiangsu Jimbio Technology Co., Ltd.) to get the total number of cells. Then, the cells were inoculated at a density of 4×10^4 cells/cm^2 in a 48-well plate which was coated with Matrigel®. […] The centrifuged cell pellet was resuspended in the basic medium BM and the cells were counted with a flow imaging counter (JIMBIO FIL, Jiangsu Jimbio Technology Co., Ltd.) to get the total number of cells. […]

[2] = tested on: lung cancer cells (No. B18); experiment: Effects of different factors added to basic medium BM on proliferation of primary lung cancer cells; type: cell-based, human; settings: factor added to BM at the concentrations of Table 3; 12 days of culture; FIGS. 1A-1D
Experimental: Extracellular matrix gel (Matrigel®) (manufactured by Corning) was diluted with serum-free DMEM/F12 medium at a ratio of 1:100 to prepare an extracellular matrix diluent. The extracellular matrix diluent was added to a 48-well culture plate with 500 μl/well to completely cover the bottom of the wells of the culture plate. The culture plate was let stand for 1 hour in a 37° C. incubator. After 1 hour, the extracellular matrix diluent was removed to provide a Matrigel-coated plate.
Preparation of basic medium (abbreviated as BM): BM was prepared by adding 0.2 vol. % of Primocin (purchased from Invivogen, with a concentration of 50 mg/ml) to the commercial DMEM/F-12 medium to provide a final concentration of 100 μg/ml.
Next, different kinds and concentrations of additive factors (Table 3) were added to the basic medium (BM), so as to prepare culture mediums for lung cancer epithelial cells containing different additive components.
The culture mediums with different components were added at a volume of 500 μl/well to 48-well plates which were coated with extracellular matrix gel (Matrigel). Lung cancer cells (No. B18) isolated from lung cancer tissues according to the same method as described in Example 1 were inoculated at a cell density of 2×10^4 cells/cm^2 in the above-mentioned 48-well culture plates which were coated with Matrigel. […]

B1: epidermal growth factor: growth factor from Sino Biological Inc. (protein, UniProt P01133 23-1207, looked up)
Pro-epidermal growth factor: PQHWSCPEGTLAGNGNSTCVGPAPFLIFSHGNSIFRIDTEGTNYEQLVVDAGVSVIMDFHYNEKRIYWVDLERQLLQRVFLNGSRQERVCNIEKNVSGMAINWINEEVIWSNQQEGIITVTDMKGNNSHILLSALKYPANVAVDPVERFIFWSSEVAGSLYRADLDGVGVKALLETSEKITAVSLDVLDKRLFWIQYNREGSNSLICSCDYDGGSVHISKHPTQHNLFAMSLFGDRIFYSTWKMKTIWIANKHTGKDMVRINLHSSFVPLGELKVVHPLAQPKAEDDTWEPEQKLCKLRKGNCSSTVCGQDLQSHLCMCAEGYALSRDRKYCEDVNECAFWNHGCTLGCKNTPGSYYCTCPVGFVLLPDGKRCHQLVSCPRNVSECSHDCVLTSEGPLCFCPEGSVLERDGKTCSGCSSPDNGGCSQLCVPLSPVSWECDCFPGYDLQLDEKSCAASGPQPFLLFANSQDIRHMHFDGTDYGTLLSQQMGMVYALDHDPVENKIYFAHTALKWIERANMDGSQRERLIEEGVDVPEGLAVDWIGRRFYWTDRGKSLIGRSDLNGKRSKIITKENISQPRGIAVHPMAKRLFWTDTGINPRIESSSLQGLGRLVIASSDLIWPSGITIDFLTDKLYWCDAKQSVIEMANLDGSKRRRLTQNDVGHPFAVAVFEDYVWFSDWAMPSVMRVNKRTGKDRVRLQGSMLKPSSLVVVHPLAKPGADPCLYQNGGCEHICKKRLGTAWCSCREGFMKASDGKTCLALDGHQLLAGGEVDLKNQVTPLDILSKTRVSEDNITESQHMLVAEIMVSDQDDCAPVGCSMYARCISEGEDATCQCLKGFAGDGKLCSDIDECEMGVPVCPPASSKCINTEGGYVCRCSEGYQGDGIHCLDIDECQLGEHSCGENASCTNTEGGYTCMCAGRLSEPGLICPDSTPPPHLREDDHHYSVRNSDSECPLSHDGYCLHDGVCMYIEALDKYACNCVVGYIGERCQYRDLKWWELRHAGHGQQQKVIVVAVCVVVLVMLLLLSLWGAHYYRTQKLLSKNPKNPYEESSRDVRSRRPADTEDGMSSCPQPWFVVIKEHQDLKNGGQPVAGEDGQAADGSMQPTSWRQEPQLCGMGTEQGCWIPVSSDKGSCPQVMERSFHMPSYGTQTLEGGVEKPHSLLSANPLWQQRALDPPHQMELTQ
modifications: Pro-epidermal growth factor
**Q.** Which results are given for B1?
**A.** amount in the culture medium, most preferably [1]: 20 ng/mL; effect on cell proliferation (ratio of number of cells to that in basic medium BM) [2]: certain promoting effects on cell proliferation in specific concentration ranges
